Data from the supplement of paper PMC9170038.

Tested on: MS2 coat protein
Assay: apparent KD of MS2 coat protein; designed switch direction (-1 OFF switch, 1 ON switch): 1; higher = weaker reporter binding
Method in brief: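 Transcription of designed RNA switches on Illumina chips was done by stalled E. coli RNA polymerase. SNAP-549-labelled MS2 coat protein was then titrated in doubling steps from 0.7 or 1.5 nM to 3 µM, with steps of 0.8–1.5 h at the lowest and 10–20 min at the highest concentration. The per-design median over clusters of curve-fitted normalised fluorescence is reported as apparent KD.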

[1] = input ligand: microRNA oligo, concentration not stated
[2] = Eterna round: R95, input ligand: FMN 200 uM
[3] = Eterna round: R95, input ligand: microRNA oligo, concentration not stated
[4] = Eterna round: R95, input ligand: none

| Sequence | apparent KD of MS2 coat protein (input ligand: FMN 200 uM) [nM] | apparent KD of MS2 coat protein [1] [nM] | apparent KD of MS2 coat protein (input ligand: none) [nM] | apparent KD of MS2 coat protein [2] [nM] | apparent KD of MS2 coat protein [3] [nM] | apparent KD of MS2 coat protein [4] [nM] |
| --- | --- | --- | --- | --- | --- | --- |
| AUACUCAUGUAAGGAUAUGCAGCCGAAACGGCUGCAGAAGGUACUAUAAUACAUGAGGAUCACCCAUGUCAAAAUUAUUUAGUU [Mat - Same State NG 1 - JL mod - D99] (Eterna round: R96, puzzle: Same State NG 1) | 19.5 | 21.9 | 22.3 |  |  |  |
| AUACUCAUGUAAGGAUAUGCAGCCGUUUCGGCUGCAGAAGGUACUAUAAUACAUGAGGAUCACCCAUGUCUCUCGCAUUGCGAG [JL SSNG1 1.47] (Eterna round: R96, puzzle: Same State NG 1) |  | 49.2 |  |  |  |  |
| AUAGUUGCCGAAGGAUAUGAUGAGGAUCACCCAUCAGAAGGUUGGCUAUUGGGCUGACAUGAGGAUCACCCAUGUUUCGGUGUU (Eterna round: R96, puzzle: Same State NG 1) | 19.2 | 17.1 | 29.1 |  |  |  |
| AUAGUUGCUGAAGGAUAUGAUGAGGAUCACCCAUCAGAAGGUUGGCUAUUGGGUGGACAUGAGGAUCACCCGUGUUCUUUGGUA (Eterna round: R96, puzzle: Same State NG 1) | 48.6 | 59.1 | 82.4 |  |  |  |
| AUCCUACAUGAGGAUCACCCAUGUGAAGCCUCAAUAGGAUAUGCGUGUGCCUUGGCGCAUGCAGAAGGAUUGAAGC [JL Aveso mod 3] (puzzle: Same State 1) |  |  |  | 91 | 311 | 967 |
| AUGAAGAAUUAAGGAUAUUGAUUACAUAUGUUUAACAUGAGGAUCACCCAUGUGGGUUGCGGUAUCGAGAAGGUAAAAUAAAAG [Mat - same State NG 2 - JL mod - D89] (Eterna round: R96, puzzle: Same State NG 2) | 252 | 193 | 213 |  |  |  |
| AUGAUAUACUCAGGAUAUAUGCGAGACGACGAGAUAGAAGGGAGAAGAUAAUGACGUACAUGAGGAUCACCCAUGUGAGGAUCA [Same State NG1 S4] (Eterna round: R96, puzzle: Same State NG 1) | 26.9 | 20.6 | 34 |  |  |  |
| AUGGGCAUGCUAGGAUAUUAUAGUAGGCAGCAAUGAGAAGGAGUAUCCCGUUGCUAUCACGCACCACAUGAGGAUCACCCAUGU [Eternabot solution 32] (Eterna round: R96, puzzle: Same State NG 1) | 24.9 | 19.5 | 28.3 |  |  |  |
| AUGUAUCGCCUCGAGGAUAUCCUGUCAUGCACAUGAGGAUCACCCAUGUAAGAGCGAGUUUAAUGGGAGAAGGCGAGUUCUCGGU [JR_SS002_Sub1707] (Eterna round: R96, puzzle: Same State 2) | 46.9 | 78.5 | 106 |  |  |  |
| AUUAAACAUGAGGAUCACCCAUGUAAUAAUAUGGGAGGAUAUGCGAAUUUAAUUAUUUAAGCAGAAGGCCUAAUUA [Mat - Same State 1 - D100] (puzzle: Same State 1) |  |  |  |  | 56 |  |
| AUUAAACAUGAGGAUCACCCAUGUCAACAAAGUCGAGGAUAUGGGCAAAUAAAAUAAGAACCAGAAGGCGAUUAAU [salish99_ss1_r3_078] (puzzle: Same State 1) |  |  |  | 18.7 | 109 | 95.7 |
| AUUAAACAUGAGGAUCACCCAUGUCAACAAAGUCGAGGAUAUGGGCAAAUAAAUUAAGAACCAGAAGGCGAAUAAU [salish99_ss1_r3_057] (puzzle: Same State 1) |  |  |  |  | 266 |  |
| AUUAAACAUGAGGAUCACCCAUGUCAACAAAGUCGAGGAUAUGGGCAAUUAAAAUAAGAACCAGAAGGCGAAUAAU [salish99_ss1_r3_061] (puzzle: Same State 1) |  |  |  |  | 224 |  |
| AUUAAUUAUGCAGGAUAUGAUUAACAUGAGGAUCACCCAUGUGGUGUUGUGAGUAAGGAGAGUGAUCAGAAGGGCAUUUUUUUU [JMF's solution 66] (Eterna round: R96, puzzle: Same State NG 2) | 652 | 524 | 449 |  |  |  |
| AUUAUACAUGAGGAUCACCCAUGUAAUUAAUUAAUUAAGAUCAAGGAUAUCAGCUCGAAUAGAGCUGAGAAGGUGAUCACAUGU [SSNG3/20-B1] (Eterna round: R96, puzzle: Same State NG 3) |  | 218 |  |  |  |  |
| AUUAUCUAUGCAGGAUAUGAUUAACAUGAGGAUCACCCAUGUGGUGUUGUGAGUAAGGAGAGUGAUCAGAAGGGCAUUUUUUUU [JMF's solution 65] (Eterna round: R96, puzzle: Same State NG 2) | 875 | 370 | 566 |  |  |  |
| AUUAUUUAUGCAGGAUAUGAUUAACAUGAGGAUCACCCAUGUGGUGUUGUGAGUAAGGAGAGUGAUCAGAAGGGCAUUUUUUUG [JMF's solution 57] (Eterna round: R96, puzzle: Same State NG 2) | 666 | 451 | 350 |  |  |  |

| Sequence | apparent KD of MS2 coat protein (input ligand: FMN 200 uM) [nM] | apparent KD of MS2 coat protein [1] [nM] | apparent KD of MS2 coat protein (input ligand: none) [nM] | apparent KD of MS2 coat protein [2] [nM] | apparent KD of MS2 coat protein [3] [nM] | apparent KD of MS2 coat protein [4] [nM] |
| --- | --- | --- | --- | --- | --- | --- |
| AUUGGGUAACGAGGAUAUCGUUUUUGUUUUCUUCGAGAAGGCGUUAUUGUUUAUUUCUAUUGUUACAUGAGGAUCACCCAUGUU [JR_SSNG1_Sub055] (Eterna round: R96, puzzle: Same State NG 1) | 15 | 13.8 | 21.5 |  |  |  |
| AUUUCAGUCAGAGGAUAUUGUUUAUCUCUAUUGCAAGAAGGCUGAUCUUACUACCCACUUAUGAAACAUGAGGAUCACCCAUGU [JR_SSNG1_Sub017] (Eterna round: R96, puzzle: Same State NG 1) |  | 15.7 |  |  |  |  |
| AUUUGUAAUGCAGGAUAUGAUUAACAUGAGGAUCACCCAUGUGGUGUUGUGAGUAAGGAGAGUGAUCAGAAGGGCAUUUUUUUU [JMF's solution 98] (Eterna round: R96, puzzle: Same State NG 2) | 800 | 295 | 526 |  |  |  |
| AUUUUAAAUGCAGGAUAUGAUUAACAUGAGGAUCACCCAUGUGGUGUUGUGAGUAAGGAGAGUGAUCAGAAGGGCAUUUUUUUU [JMF's solution 95] (Eterna round: R96, puzzle: Same State NG 2) | 748 | 546 | 714 |  |  |  |
| CAAACUUAGUAGGAUAGGUACCCAGGAUGACAUGAGGAUCACCCAUGUAAGAGCUUUUUGCUCGUCAUUAACAGUUG [JR_SHM208a_Sub017] (puzzle: Sensor for hsa-mir-208a) |  |  |  | 51.7 | 53 | 78.3 |
| CAAACUUAGUAGGGUAGGUACCCAGGACGACAUGAGGAUCACCCAUGUAAGAGCUUUUUGCUCGUCGUCAACAGUUG [JR_SHM208a_Sub019] (puzzle: Sensor for hsa-mir-208a) |  |  |  | 19.8 | 22.5 | 19.8 |
| CAAGGACGGACACAGGAUAUCCUCACCUACACAUGAGGAUCACCCAUGUCAUAAAAGAUGGUGCAGGAGAAGGGUGCGGCGUCAA [Zarelaesdi] (puzzle: Same State 2) |  |  |  | 7.93 | 8.32 | 6.36 |
| CACAUGAGGAUCACCCAUGUGAGGCGGCAAUAAAACCGCGCACAGGAUAUAGCGCUAAGAAAGCGCUAGAAGGGUGAUUAGAAC [Gerelabies] (Eterna round: R96, puzzle: Same State NG 3) | 712 | 20.8 | 71.1 |  |  |  |
| CAGCGCUGUCGAGAGGAUAUGCGGUGAUGGACAUGAGGAUCACCCAUGUUAGCGAUGGCAUUACGGUAGAAGGCUCUACAGCUGC [Soteed - 4] (puzzle: Same State 2) |  |  |  |  | 26 |  |
| CAGUGCUGUUGAGAGGAUAUGCGGUGAUGGACAUGAGGAUCACCCAUGUUAGCGACAGCGUUACGGCAGAAGGCUCUACCCACUG [Soteed Omei mod 48] (puzzle: Same State 2) |  |  |  |  | 39.1 |  |
| CAUACGCGGAGAGGAUAUCGCAGGGUAACGGUAAGUGCCCGAUGACAUGAGGAUCACCCAUGUAUCGAGAAGGCUCCUCACCCU [Eternabot solution 22] (Eterna round: R96, puzzle: Same State NG 2) | 10.6 | 7.9 | 15.1 |  |  |  |
| CCCGCGUUUCGCGCCUACAUGAGGAUCACCCAUGUUUGUAGGCAGGAUAUCGUCCGCUCUGCGGGCGAGAAGGGCUGUUGUGGU [salish99_SSNG3_R04_029] (Eterna round: R96, puzzle: Same State NG 3) |  | 72.9 |  |  |  |  |
| CCGAUAAUAGGACAGGAUAUGACUGUCGUCACAUGAGGAUCACCCAUGUCCCGGCAAUGCCACCGUUAGAAGGGUCCUAUCUCGA [Maeded] (puzzle: Same State 2) |  |  |  |  | 13.5 |  |
| CCGGGUAAUGGAGGAUAUGGAGCCUUAUUGGCUCCAGAAGGCUAACAUGAGGAUCACCCAUGUAGUCCGGCGGUCAAUAGACCG [Eli NG1ss - 66] (Eterna round: R96, puzzle: Same State NG 1) | 10.5 | 13.2 | 19.2 |  |  |  |
| CCGUUGAUGGGACAGGAUAUGACUGUCGUCACAUGAGGAUCACCCAUGUCCCGGCAAUGCCACCGUUAGAAGGGUCCCGUCUCGG [Edraedbibe] (puzzle: Same State 2) |  |  |  |  | 12 |  |
| CGACACACGGCAGGAUAUGCUUAGCAAAGCUAAGCAGAAGGGCCUCAUGUCGUGGAAACGUGACAUGAGGAUCACCCAUGUUGC [Omei SS(NG)1 Cv1] (Eterna round: R96, puzzle: Same State NG 1) | 21 | 5.59 | 36.3 |  |  |  |
